Test results: patent US20170295781A1 (AGROSAVFE N V, published 2017)
Where a chain is given by its changes, count along the chain named.

Assays:
[1] = biological target: potato lectin (Sigma) (potato) (UniProt Q9S8M0); experiment: ELISA-like assay, lambda-cyhalothrin microcapsules on potato lectin-coated wells, surface coverage 100%
[2] = biological target: potato lectin (Sigma) (potato) (UniProt Q9S8M0); experiment: ELISA-like assay, Uvitex microcapsules on wells coated with 5 ug/well potato lectin, surface coverage 20%
[3] = biological target: potato lectin (Sigma) (potato) (UniProt Q9S8M0); experiment: ELISA-like assay, Uvitex OB microcapsules on potato lectin-coated wells, surface coverage 20%
[4] = biological target: potato lectin (Sigma) (potato) (UniProt Q9S8M0); experiment: ELISA-like assay, Uvitex OB microcapsules on potato lectin-coated wells, surface coverage 100%
[5] = biological target: potato lectin (Sigma) (potato) (UniProt Q9S8M0); experiment: ELISA-like assay, Uvitex microcapsules on wells coated with 5 ug/well potato lectin, surface coverage 100%
[6] = biological target: potato lectin (Sigma) (potato) (UniProt Q9S8M0); experiment: ELISA-like assay, lambda-cyhalothrin microcapsules on potato lectin-coated wells, surface coverage 20%
[7] = biological target: potato lectin (Sigma) (potato) (UniProt Q9S8M0); experiment: ELISA-like assay, Uvitex microcapsules on wells coated with 5 ug/well potato lectin, surface coverage 4%
[8] = biological target: potato lectin (Sigma) (potato) (UniProt Q9S8M0); experiment: ELISA-like assay, lambda-cyhalothrin microcapsules on potato lectin-coated wells, surface coverage 4%
[9] = biological target: potato lectin (Sigma) (potato) (UniProt Q9S8M0); experiment: ELISA-like assay, Uvitex OB microcapsules on potato lectin-coated wells, surface coverage 4%
potato lectin (Sigma) [10] = biological target: T1, potato lectin (Sigma) (potato, UniProt Q9S8M0 23-323); experiment: ELISA, potato lectin coated at 100 ug/ml, VHH at 3 ug/ml, anti-histidine detection
T1 construct: Bought glycoprotein coated on ELISA plates
T1 sequence (looked up): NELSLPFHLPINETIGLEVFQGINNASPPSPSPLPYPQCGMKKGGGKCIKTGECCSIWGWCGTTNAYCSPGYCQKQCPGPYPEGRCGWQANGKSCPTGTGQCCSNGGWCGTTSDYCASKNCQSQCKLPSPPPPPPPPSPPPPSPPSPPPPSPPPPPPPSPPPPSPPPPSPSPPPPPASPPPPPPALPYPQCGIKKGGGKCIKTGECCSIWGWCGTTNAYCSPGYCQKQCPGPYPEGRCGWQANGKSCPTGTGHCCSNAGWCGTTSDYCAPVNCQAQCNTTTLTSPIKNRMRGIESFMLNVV
Experimental: ELISA plates (Maxisorp, Nunc) coated with 100 μl per well 100 μg/ml potato lectin (Sigma) in PBS were coated at 4° C. overnight and coating was continued at room temperature for 1 hour on the next day. Plates were washed three times with PBS/0.05%-TWEEN®-20 and blocked with 5% skimmed milk in PBS for 1 hour. VHH (3 μg/ml) were transferred to the potato lectin-coated plates and VHH antibody fragments were allowed to bind for 1 hour at room temperature. Bound VHH were detected with sequential incubations with monoclonal mouse anti-histidine antibodies (Abd Serotec) and rabbit anti-mouse IgG whole molecule antibodies conjugated with alkaline phosphatase (RaM/AP) (Sigma) in 1% MPBS/0.05%-TWEEN®-20. Unbound antibodies were removed by washing three times with PBS/0.05%-TWEEN®-20 after each antibody incubation. The plates were washed an additional two times with PBS and 100 μl pNPP disodium hexahydrate substrate (Sigma) was added to each well and the absorbance at 405 nm was measured (see Table 2).

potato lectin (Sigma) [11] = biological target: T1, potato lectin (Sigma); experiment: ELISA-like assay, Uvitex microcapsules on potato lectin-coated wells, 25-fold less microcapsules
Experimental: An ELISA-like assay was performed using high bind half area microplates (Greiner Bio-One) coated with 5 μg/well potato lectin. Control wells included blank wells or wells coated with unrelated antigens. Plates were washed three times with PBS with 0.05%-TWEEN®-20 and blocked with 5% skimmed milk in PBS for 1 to 2 hours. VHH-coupled Uvitex-containing microcapsules were diluted to appropriate densities in 1% skimmed milk in PBS with 0.05%-TWEEN®-20. Five-fold serial dilution series were prepared and allowed to bind to the surface to compare binding of microcapsules coupled with monovalent or bivalent VHH. Microcapsules were added to the antigen-coated or control wells and allowed to bind for 1 hour. Unbound microcapsules were removed by washing five times with PBS with 0.05%-TWEEN®-20. The bottoms of ELISA plate wells were analyzed for bound microcapsules on a macrozoom microscope system (Nikon). Microcapsules were counted using Volocity image analysis software (Perkin Elmer). A DAPI filter was used to visualize Uvitex microcapsules. […] The surface area of microcapsules with coupled bivalent VHH was 15-fold above the surface area of blank microcapsules applied at this microcapsule density while the surface area of microcapsules with monovalent VHH was only six-fold above the surface area of blank microcapsules applied at this microcapsule density. […]

unrelated antigen [12] = experiment: ELISA-like assay, Uvitex microcapsules on wells coated with unrelated antigen, surface coverage 20%
unrelated antigen [13] = experiment: ELISA-like assay, Uvitex microcapsules on wells coated with unrelated antigen, surface coverage 100%
unrelated antigen [14] = experiment: ELISA-like assay, Uvitex microcapsules on wells coated with unrelated antigen, surface coverage 4%

Molecule: unrelated control VHH coupled to microcapsules
- counts of bound microcapsules [1]: 828 counts
- surface area of bound microcapsules (area (unit not given)) [2]: 43.5
- area of bound microcapsules (area (unit not given)) [3]: 35.4
- area of bound microcapsules (area (unit not given)) [4]: 16.7
- surface area of bound microcapsules (area (unit not given)) [5]: 142
- counts of bound microcapsules [6]: 709 counts
- surface area of bound microcapsules (area (unit not given)) [7]: 19.2
- counts of bound microcapsules [8]: 348 counts
- area of bound microcapsules (area (unit not given)) [9]: 7.53

B1: VHH 5C4 (VHH)
VHH: QVQLQESGGGLVQPGGSLRLSCAASGFSLRYFGIGWFRQVAGKEREPVSCSNVRDGNTYYADSVKGRFTISRDNVRNTLYLQMNSLKPEDTAVYSCATTDCEATTWGTYRGYFGQGTQVTVSS
notes: not shown: hexahistidine tag
- absorbance at 405 nm (potato lectin (Sigma) [10]): 4 A405

B2: VHH 5G5 (VHH)
VHH: B1 VHH with V40A, P47G, V48I, T78M, S85N, E89D
notes: not shown: hexahistidine tag
- absorbance at 405 nm (potato lectin (Sigma) [10]): 4 A405

B3: VHH 7D2 (VHH)
VHH: QVQLQESGGGLVQPGRSLKVACAAAGFSLRYYGIGWFRQAPGKEREAVSCTSANDGSTYYRDSVRGRFTISRDDGKNTVYLQMNRLKPEDTAVYYCATTDCDATSWGTWINYYGQGTQVTVSS
notes: not shown: hexahistidine tag
- absorbance at 405 nm (potato lectin (Sigma) [10]): 4 A405

B4: VHH 5D4 (VHH)
VHH: QVQLQESGGGLVQPGGSLRLSCAASGFDMRRFGIGWFRQVAGKEREGVSCSNVHDGTTYYTNDVKGRFTIVRDNTKNMLYLQMNKLRPEDTAVYSCATTDCEATAWGTYRGYFGQGTQVTVSS
notes: not shown: hexahistidine tag
- absorbance at 405 nm (potato lectin (Sigma) [10]): 4 A405

B5: VHH 3E6 (VHH)
VHH: QVQLQESGGGLVQPGGTLSLSCAASGFNVRWYGMGWFRQAPGKEREGVACISALQETTAYADSVKGRFTLSRDNPKNTLSLQMNNLQPEDTGVYYCATTDCDDSSRMTYTSYLGQGTQVTVSS
notes: Purified hexahistidine-tagged VHH from E. coli periplasm; not shown: hexahistidine tag
- absorbance at 405 nm (potato lectin (Sigma) [10]): 4 A405

B6: VHH 3E6 coupled to polyurea microcapsules (VHH)
VHH: B5 VHH
modifications: coupled by carbodiimide (EDC) chemistry to carboxylic acid groups on the microcapsule shell
notes: also called Monovalent VHH 3E6; monovalent VHH; not shown: hexahistidine tag
- fold surface area above blank microcapsules (potato lectin (Sigma) [11]): 6 fold

B7: Bivalent VHH 3E6 coupled to polyurea microcapsules (VHH)
chain: QVQLQESGGGLVQPGGTLSLSCAASGFNVRWYGMGWFRQAPGKEREGVACISALQETTAYADSVKGRFTLSRDNPKNTLSLQMNNLQPEDTGVYYCATTDCDDSSRMTYTSYLGQGTQVTVSSGGGGSGGGSQVQLQESGGGLVQPGGTLSLSCAASGFNVRWYGMGWFRQAPGKEREGVACISALQETTAYADSVKGRFTLSRDNPKNTLSLQMNNLQPEDTGVYYCATTDCDDSSRMTYTSYLGQGTQVTVSSAAAEQKLISEEDLNGAAHHHHHH
modifications: coupled by carbodiimide chemistry to the microcapsule shell
- surface area of bound microcapsules (area (unit not given)) (unrelated antigen [12]): 22.1
- fold surface area above blank microcapsules (potato lectin (Sigma) [11]): 15 fold
- surface area of bound microcapsules (area (unit not given)) (unrelated antigen [13]): 45.7
- surface area of bound microcapsules (area (unit not given)) (unrelated antigen [14]): 15
